The values that follow are results of earlier work, collected in US20080279771A1, “Novel Imaging Agents for Cancer” (GE HEALTHCARE LIMITED, priority 2005, published 2008).

The series deals with neuropilin-1 receptor (NP-1) (Homo sapiens, UniProt O14786). Conditions: NP-1 on tumour cells; read-out: Kd of binding of SEM-3A to NP-1.
neuropilin-1 receptor (NP-1), sequence (O14786 22-923): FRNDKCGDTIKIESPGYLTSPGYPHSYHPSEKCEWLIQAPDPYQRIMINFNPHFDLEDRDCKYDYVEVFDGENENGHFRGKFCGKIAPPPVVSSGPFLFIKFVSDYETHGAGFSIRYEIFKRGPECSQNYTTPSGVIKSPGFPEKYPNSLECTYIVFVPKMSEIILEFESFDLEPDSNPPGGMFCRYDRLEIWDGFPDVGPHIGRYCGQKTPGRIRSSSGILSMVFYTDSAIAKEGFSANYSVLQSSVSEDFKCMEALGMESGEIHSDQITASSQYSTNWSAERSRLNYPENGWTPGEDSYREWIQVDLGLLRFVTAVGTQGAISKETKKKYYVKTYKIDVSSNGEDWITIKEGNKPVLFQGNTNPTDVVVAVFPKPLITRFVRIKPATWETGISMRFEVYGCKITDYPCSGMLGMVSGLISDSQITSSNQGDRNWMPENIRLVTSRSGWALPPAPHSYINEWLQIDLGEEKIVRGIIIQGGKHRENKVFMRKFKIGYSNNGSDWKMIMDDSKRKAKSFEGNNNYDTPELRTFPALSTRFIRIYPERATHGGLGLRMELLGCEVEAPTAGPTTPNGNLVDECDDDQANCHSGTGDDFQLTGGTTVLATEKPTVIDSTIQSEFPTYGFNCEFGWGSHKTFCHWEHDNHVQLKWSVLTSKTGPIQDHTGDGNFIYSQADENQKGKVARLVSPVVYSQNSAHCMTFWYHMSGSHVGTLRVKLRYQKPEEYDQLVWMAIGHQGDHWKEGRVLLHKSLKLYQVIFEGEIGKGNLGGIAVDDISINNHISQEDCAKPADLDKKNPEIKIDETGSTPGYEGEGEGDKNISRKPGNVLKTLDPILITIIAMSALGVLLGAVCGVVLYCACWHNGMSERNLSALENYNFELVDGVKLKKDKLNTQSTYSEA

B1: SEM-3A: Semaphorin-3A, biological peptide that binds the neuropilin-1 receptor; human precursor form consists of 771 amino acids (protein, UniProt Q14563 21-771, looked up)
Semaphorin-3A: NYQNGKNNVPRLKLSYKEMLESNNVITFNGLANSSSYHTFLLDEERSRLYVGAKDHIFSFDLVNIKDFQKIVWPVSYTRRDECKWAGKDILKECANFIKVLKAYNQTHLYACGTGAFHPICTYIEIGHHPEDNIFKLENSHFENGRGKSPYDPKLLTASLLIDGELYSGTAADFMGRDFAIFRTLGHHHPIRTEQHDSRWLNDPKFISAHLISESDNPEDDKVYFFFRENAIDGEHSGKATHARIGQICKNDFGGHRSLVNKWTTFLKARLICSVPGPNGIDTHFDELQDVFLMNFKDPKNPVVYGVFTTSSNIFKGSAVCMYSMSDVRRVFLGPYAHRDGPNYQWVPYQGRVPYPRPGTCPSKTFGGFDSTKDLPDDVITFARSHPAMYNPVFPMNNRPIVIKTDVNYQFTQIVVDRVDAEDGQYDVMFIGTDVGTVLKVVSIPKETWYDLEEVLLEEMTVFREPTAISAMELSTKQQQLYIGSTAGVAQLPLHRCDIYGKACAECCLARDPYCAWDGSACSRYFPTAKRRTRRQDIRNGDPLTHCSDLHHDNHHGHSPEERIIYGVENSSTFLECSPKSQRALVYWQFQRRNEERKEEIRVDDHIIRTDQGLLLRSLQQKDSGNYLCHAVEHGFIQTLLKVTLEVIDTEHLEELLHKDDDGDGSKTKEMSNSMTPSQKVWYRDFMQLINHPNLNTMDEFCEQVWKRDRKQRRQRPGHTPGNSNKWKHLQENKKGRNRRTHEFERAPRSV
As a reminder, the Kd is the equilibrium constant for the complex coming apart. On to B1, for which the Kd was roughly 0.28 nM.
